Measured values reported in publication PMC11068555.

Assays:
Assay in all cases: native gel or EMSA
[1] = target: Btky72 S Foldon his (sarbecovirus BtKY72 (clade 3) | bacteriophage T4)
[2] = target: Khosta-2 S Foldon his (prefusion stabilized spike ectodomain) (sarbecovirus Khosta-2 (clade 3) | bacteriophage T4)
[3] = target: PRD-0038 S Foldon his (prefusion stabilized spike ectodomain) (sarbecovirus PRD-0038 (clade 3) | bacteriophage T4)
[4] = target: Pang17 S Foldon his (prefusion stabilized spike ectodomain) (sarbecovirus Pang17 (clade 1b) | bacteriophage T4)
[5] = target: Rf1 S Foldon his (prefusion stabilized spike ectodomain) (sarbecovirus Rf1 (clade 2) | bacteriophage T4)
[6] = target: Rs4081 S Foldon his (prefusion stabilized spike ectodomain) (sarbecovirus Rs4081 (clade 2) | bacteriophage T4)
[7] = target: RshSTT200 S Foldon his (prefusion stabilized spike ectodomain) (sarbecovirus RshSTT200 (clade 1b) | bacteriophage T4)
[8] = target: SARS-CoV S Foldon his (prefusion stabilized spike ectodomain) (SARS-CoV (clade 1a) | bacteriophage T4)

Btky72 S Foldon his (domain or fragment)
stoichiometry N [1]: 3

Khosta-2 S Foldon his (prefusion stabilized spike ectodomain) (domain or fragment)
stoichiometry N [2]: 3

PRD-0038 S Foldon his (prefusion stabilized spike ectodomain) (domain or fragment)
stoichiometry N [3]: 3

Pang17 S Foldon his (prefusion stabilized spike ectodomain) (domain or fragment)
stoichiometry N [4]: 3

Rf1 S Foldon his (prefusion stabilized spike ectodomain) (domain or fragment)
stoichiometry N [5]: 3

Rs4081 S Foldon his (prefusion stabilized spike ectodomain) (domain or fragment)
stoichiometry N [6]: 3

RshSTT200 S Foldon his (prefusion stabilized spike ectodomain) (domain or fragment)
stoichiometry N [7]: 3

SARS-CoV S Foldon his (prefusion stabilized spike ectodomain) (domain or fragment)
stoichiometry N [8]: 3
